The values that follow come from patent CN112375146A.

The target of the experiment is FMC63 scFv, His Tag. Kind of experiment: SPR; FMC63 scFv as analyte at 125, 62.5, 31.25, 15.625, 7.813, 3.906 and 1.953 nM. On the technique in general: Surface plasmon resonance follows binding to a sensor surface in real time, without labels.

B1: Y45克隆号抗体 (antibody, V domains shown)
VH: EVKLLESGGGLVQPGGSLKLSCAASGDFRYFQWMSWVRQAPGKGLEWIGEIDNLDSITKYTPSLKDKFIISRDNAKNTLYLQMRKVRSEDTALYYCRAYRYMYDPRWGQGTSVTVSS
VL: DIVLTQSPASLAVSLGQRATISCRASKVSSTSSGYYMHWYQQKPGQPPKLLIYALNNLESGVPARFSGSGSGTDFTLNVHPVEEEDAATYYCQTFYGSELPFGSGTKLEIK
Molecule B1 came in with a Kd of 1.08 nM.

By Kd is commonly meant a measure of binding affinity in units of concentration. Read a high Kd as lower affinity.
